# US20250295799A1, “ANTIBODY-DRUG CONJUGATES TARGETING GLYPICAN-3 AND METHODS OF USE” (Zymeworks BC Inc., priority 2022, published 2025)
# Legend:
# [1] = target: human glypican-3 (GPC3) (human) (UniProt P51654); assay: cell-based or functional assay
# [2] = target: human glypican-3 (GPC3) (human) (UniProt P51654); assay: flow cytometry on JHH-5 cells (GPC3-mid)
# [3] = target: human glypican-3 (GPC3) (human) (UniProt P51654); assay: flow cytometry on JHH-7 cells (GPC3-high)
# [4] = target: human glypican-3 (GPC3) (human) (UniProt P51654); assay: flow cytometry on CHO-S cells transfected with human GPC3
# [5] = target: cynomolgus monkey glypican-3 (GPC3) (cynomolgus monkey); assay: flow cytometry on CHO-S cells transfected with cynomolgus GPC3
# [6] = target: human glypican-3 (GPC3) (human) (UniProt P51654); assay: flow cytometry on JHH-7 cells; v21995 in PBS (not incubated in plasma), day 0
# [7] = target: human GPC3 on cells (human) (UniProt P51654); assay: flow cytometry, JHH-7 cells; negative control
JHH-5 Internalization (MFI) [1],"JHH-5 Internalization (MFI), Day 0 (in PBS) [1]",JHH-7 Internalization (MFI) [1],"JHH-7 Internalization (MFI), Day 0 (in PBS) [1]",Kd [2],Kd [3],Kd [4],Kd [5],Bmax (MFI) [6],Kd [6],Kd [7],Substance
399 MFI,506 MFI,265 MFI,4 MFI,> 150 nM,> 47 nM,> 150 nM,> 150 nM,309 MFI,37.7 nM,,"palivizumab (anti-RSV antibody), v21995"
,,,,,,,,,,> 60 nM,v22277 (palivizumab) (antibody)
